Test results from patent publication US20230038878A1 (EVER SUPREME BIO TECHNOLOGY, published 2023).

B1: PD-L1 Nb #3 (VHH)
VHH: EVQLVESGGGLVQPGGSLRLSCVASGFTFSSIGMSWVRQAPGKGLEWVSGLNPVGSHTGYADSVKGRFTISRDNAKNTLHLQLNSLKTEDTAMYYCQRGYTCSGDLCERGQGTQVTVSS
notes: Prepared as a free nanobody; also called PD-L1 nanobody
B2: PD-L1 Nb #15 (VHH)
VHH: HVQLVESGGGLVQPGGSLRLSCAASGFTFSSKAMSWVRQAPGKGLDWVSTINSGGGNTYYSDSVKGRFTISRDNAKNTLYLQLNSLKTEDTAMYYCSRCSDIYCGGQYTYRGQGTLVTVSS
notes: as for B1

Key:
[1] = target: HLA-G recombinant protein (Origene, CAT #: TP305216) (human) (UniProt P17693); experiment: competitive ELISA on HLA-G recombinant protein; blocked ligand: biotinylated KIR2DL4
[2] = target: HLA-G recombinant protein (Origene, CAT #: TP305216) (human) (UniProt P17693); experiment: competitive ELISA; competitor biotinylated LILRB1 on HLA-G recombinant protein
[3] = target: HLA-G recombinant protein (Origene, CAT #: TP305216) (human) (UniProt P17693); experiment: competitive ELISA on HLA-G recombinant protein; blocked ligand: biotinylated LILRB1
[4] = target: HLA-G recombinant protein (Origene, CAT #: TP305216) (human) (UniProt P17693); experiment: competitive ELISA; competitor biotinylated KIR2DL4 on HLA-G recombinant protein
[5] = target: T1, PD-L1 recombinant protein (Sino Biological, CAT #: 10084-H05H) (UniProt Q9NZQ7 19-239); experiment: SPR
T1 construct: Bought protein; also called programmed death-ligand 1
Experimental: The kinetic analysis of the PD-L1 nanobodies of the present disclosure and the binding affinity analysis of the PD-L1 recombinant protein (Sino Biological, CAT #: 10084-H05H) are performed by SPR analysis.

[6] = target: T2, PD-L1 on PD-L1 aAPC/CHO-K1 cells (PD-1/PD-L1 Blockade Bioassay Kit, Promega) (UniProt Q9NZQ7 19-290, limits assumed); experiment: cell-based or functional assay
[7] = target: T2, PD-L1 on PD-L1 aAPC/CHO-K1 cells …; experiment: cell-based or functional assay; remark: listed apart in the source

T2 sequence (Q9NZQ7 19-290 limits assumed): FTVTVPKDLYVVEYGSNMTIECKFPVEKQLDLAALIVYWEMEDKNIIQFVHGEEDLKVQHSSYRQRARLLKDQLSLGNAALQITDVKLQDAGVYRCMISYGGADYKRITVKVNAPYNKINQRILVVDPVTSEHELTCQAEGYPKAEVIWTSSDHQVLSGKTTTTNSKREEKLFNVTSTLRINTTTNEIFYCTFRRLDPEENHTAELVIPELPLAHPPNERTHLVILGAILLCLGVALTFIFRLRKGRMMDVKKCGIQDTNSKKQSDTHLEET
T1 sequence (Q9NZQ7 19-239 limits assumed): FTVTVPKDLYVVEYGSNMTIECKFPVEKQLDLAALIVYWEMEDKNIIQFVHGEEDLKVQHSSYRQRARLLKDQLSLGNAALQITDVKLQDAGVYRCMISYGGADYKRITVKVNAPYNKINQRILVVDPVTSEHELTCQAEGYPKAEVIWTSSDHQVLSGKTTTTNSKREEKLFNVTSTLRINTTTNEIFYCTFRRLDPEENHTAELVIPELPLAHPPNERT

| Molecule | IC50 (read off the curve) [1] | IC50 [2] | IC50 (read off the curve) [3] | IC50 [4] | Kd [5] | koff [5] | kon [5] | IC50 (read off the curve); PD-1/PD-L1 Blockade Bioassay (Promega), bioluminescence (RLU), which rises with the concentration [6] | IC50 for the PD-1 blocking activity (PD-1/PD-L1 Blockade Bioassay, luminescence) [7] |
| --- | --- | --- | --- | --- | --- | --- | --- | --- | --- |
| HLA-G monoclonal antibody (87G, ThermoFisher) | 100 nM | > 1000 nM | 7000 nM | 104 nM |  |  |  |  |  |
| B1 |  |  |  |  | 0.86 nM | 0.00521 s⁻¹ | 6.04e+06 M⁻¹ s⁻¹ | ~20 nM | ~37.7 nM |
| B2 |  |  |  |  | 0.91 nM | 0.000936 s⁻¹ | 1.03e+06 M⁻¹ s⁻¹ |  | ~0.48 nM |
